In IntAct's records for PubMed 20847002:

B1: Probable peptidoglycan glycosyltransferase FtsW (Escherichia coli (strain K12)), P0ABG4 (parent)
chain: MRLSLPRLKMPRLPGFSILVWISTALKGWVMGSREKDTDSLIMYDRTLLWLTFGLAAIGFIMVTSASMPIGQRLTNDPFFFAKRDGVYLILAFILAIITLRLPMEFWQRYSATMLLGSIILLMIVLVVGSSVKGASRWIDLGLLRIQPAELTKLSLFCYIANYLVRKGDEVRNNLRGFLKPMGVILVLAVLLLAQPDLGTVVVLFVTTLAMLFLAGAKLWQFIAIIGMGISAVVLLILAEPYRIRRVTAFWNPWEDPFGSGYQLTQSLMAFGRGELWGQGLGNSVQKLEYLPEAHTDFIFAIIGEELGYVGVVLALLMVFFVAFRAMSIGRKALEIDHRFSGFLACSIGIWFSFQALVNVGAAAGMLPTKGLTLPLISYGGSSLLIMSTAIMMLLRIDYETRLEKAQAFVRGSR
partner: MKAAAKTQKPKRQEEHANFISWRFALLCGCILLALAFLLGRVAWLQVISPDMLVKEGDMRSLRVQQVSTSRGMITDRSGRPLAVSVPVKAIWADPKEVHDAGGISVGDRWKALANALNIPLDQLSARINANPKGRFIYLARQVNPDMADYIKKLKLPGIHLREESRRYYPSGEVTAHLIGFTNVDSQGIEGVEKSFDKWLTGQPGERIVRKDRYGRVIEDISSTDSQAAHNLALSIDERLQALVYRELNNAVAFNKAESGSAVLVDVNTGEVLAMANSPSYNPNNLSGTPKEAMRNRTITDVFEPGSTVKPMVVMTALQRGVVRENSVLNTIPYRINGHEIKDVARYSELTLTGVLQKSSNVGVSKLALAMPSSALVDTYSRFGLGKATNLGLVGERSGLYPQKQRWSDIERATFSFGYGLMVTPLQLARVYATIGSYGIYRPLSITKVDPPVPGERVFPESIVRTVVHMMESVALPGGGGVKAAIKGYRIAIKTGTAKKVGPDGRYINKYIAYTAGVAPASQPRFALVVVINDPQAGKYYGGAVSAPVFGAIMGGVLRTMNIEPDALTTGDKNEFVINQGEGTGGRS
B2: Probable peptidoglycan glycosyltransferase FtsW (Escherichia coli (strain K12)), P0ABG4 (parent)
chain: B1 chain
partner: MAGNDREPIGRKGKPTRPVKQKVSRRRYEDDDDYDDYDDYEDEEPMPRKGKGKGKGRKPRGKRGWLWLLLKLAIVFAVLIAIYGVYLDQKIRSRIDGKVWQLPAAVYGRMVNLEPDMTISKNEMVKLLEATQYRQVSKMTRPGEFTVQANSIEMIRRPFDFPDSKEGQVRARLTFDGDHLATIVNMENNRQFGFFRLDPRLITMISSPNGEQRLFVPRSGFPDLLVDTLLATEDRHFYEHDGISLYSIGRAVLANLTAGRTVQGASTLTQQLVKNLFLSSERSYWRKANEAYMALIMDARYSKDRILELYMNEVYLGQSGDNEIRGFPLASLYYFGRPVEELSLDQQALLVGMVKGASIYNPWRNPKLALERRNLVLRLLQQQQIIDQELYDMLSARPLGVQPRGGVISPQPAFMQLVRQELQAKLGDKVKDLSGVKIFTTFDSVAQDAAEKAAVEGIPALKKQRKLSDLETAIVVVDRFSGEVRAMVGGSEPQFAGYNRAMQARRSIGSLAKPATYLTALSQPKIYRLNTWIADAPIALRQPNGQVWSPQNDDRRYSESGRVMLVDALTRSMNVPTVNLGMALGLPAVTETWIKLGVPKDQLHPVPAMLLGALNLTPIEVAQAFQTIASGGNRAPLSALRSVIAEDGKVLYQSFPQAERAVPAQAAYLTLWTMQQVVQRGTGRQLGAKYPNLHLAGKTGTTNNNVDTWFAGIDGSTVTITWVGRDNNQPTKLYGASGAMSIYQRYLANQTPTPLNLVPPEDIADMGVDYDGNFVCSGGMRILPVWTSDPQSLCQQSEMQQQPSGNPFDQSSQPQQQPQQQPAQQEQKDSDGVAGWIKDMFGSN
B3: Peptidoglycan D,D-transpeptidase FtsI (Escherichia coli (strain K12)), P0AD68 (parent)
chain: B1 partner
partner: B1 chain

Variants of: B1
Conditions: with ftsi_ecoli ftsI

effect of a mutation on the interaction | Variant
decreasing interaction | P375A
decreasing interaction | P368A

Variants of: B2
Conditions: with pbpb_ecoli mrcB

effect of a mutation on the interaction | Variant
decreasing interaction | P368A
decreasing interaction | P375A

Variants of: B3
Conditions: with ftsw_ecoli ftsW

effect of a mutation on the interaction | Variant
decreasing interaction strength | R23C
